Literature values as cited in PMC6995517.

Molecular target: transferrin receptor (TfR) (Homo sapiens) (UniProt P02786)
Sequence (P02786 89-760): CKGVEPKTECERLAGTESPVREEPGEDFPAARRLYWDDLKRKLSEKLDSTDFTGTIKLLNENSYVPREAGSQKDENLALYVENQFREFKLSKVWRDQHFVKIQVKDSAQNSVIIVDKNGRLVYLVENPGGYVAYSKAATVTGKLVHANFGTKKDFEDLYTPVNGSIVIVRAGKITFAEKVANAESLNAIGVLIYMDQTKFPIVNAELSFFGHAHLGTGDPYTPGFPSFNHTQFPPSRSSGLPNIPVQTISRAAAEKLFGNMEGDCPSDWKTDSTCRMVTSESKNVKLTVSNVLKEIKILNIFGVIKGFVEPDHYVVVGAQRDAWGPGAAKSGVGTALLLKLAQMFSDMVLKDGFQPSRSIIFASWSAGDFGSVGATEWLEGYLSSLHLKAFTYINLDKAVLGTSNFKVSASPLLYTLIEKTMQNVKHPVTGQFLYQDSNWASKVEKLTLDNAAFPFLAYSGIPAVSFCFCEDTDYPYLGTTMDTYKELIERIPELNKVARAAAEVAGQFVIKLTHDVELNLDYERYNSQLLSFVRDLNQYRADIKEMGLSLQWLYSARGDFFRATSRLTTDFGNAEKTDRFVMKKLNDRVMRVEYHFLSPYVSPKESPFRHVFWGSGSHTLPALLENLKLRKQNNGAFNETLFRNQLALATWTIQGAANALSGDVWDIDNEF

Kd: 0.01 µM
Substance: T7 peptide
